In publication PMC12164958:

Tests used:
[1] = biological target: UBR7 (construct of the Co-IP assays); assay: Co-IP (IP: Anti-Flag), quantified band intensity, bar chart of three replicates; conditions: parent: est. 1.0; read off a plot
[2] = biological target: UBR7 (construct of the Co-IP assays); assay: Co-IP (IP: Anti-Flag, blot Anti-HA), band intensity; conditions: parent: 1.00
MBP-tagged UBR7 [3] = assay: MBP pull-down, quantified band intensity, bar chart of three replicates; conditions: parent: est. 1.0; read off a plot
MBP-tagged UBR7 [4] = assay: MBP pull-down (blot Anti-His), band intensity; conditions: parent: 1.00
UBR7-nLuc = assay: LCI assay (luciferase complementation imaging) in N. benthamiana leaves; conditions: Luminescence signals were recorded at 48 hpi; parent: est. 1.0; read off a plot

| Substance | ratio to parent [1] | ratio to parent [2] | ratio to parent (MBP-tagged UBR7 [3]) | ratio to parent (MBP-tagged UBR7 [4]) | ratio to parent (UBR7-nLuc) |
| --- | --- | --- | --- | --- | --- |
| AL7-3×Flag S174D | 1.9 | 1.63 |  |  |  |
| AL7-3×Flag S174A | 0.6 | 0.55 |  |  |  |
| His-tagged AL7 S174A |  |  | 0.72 | 0.95 |  |
| His-tagged AL7 S174D |  |  | 3.1 | 3.18 |  |
| cLuc-AL7 S174A |  |  |  |  | 0.98 |
| cLuc-AL7 S174D |  |  |  |  | 1.6 |
